Laboratory results as given in article doi:10.1101/2025.05.30.657017.

Legend:
[1] = biological target: strep-tagged soluble domain of the MtrA subunit (M1 - S168), RED labeled (Methanosarcina mazei) (UniProt O59640); test: MST
[2] = biological target: MtrR-His6 constitutively expressed in M. mazei (pRS2087) (Methanosarcina mazei Gö1); test: IMAC purification and western blot
[3] = biological target: MtrR, endogenous in M. mazei (Methanosarcina mazei (endogenous in M. mazei)); test: western blot of the strep-tactin eluate

UniProt O59640, sequence (O59640 1-168): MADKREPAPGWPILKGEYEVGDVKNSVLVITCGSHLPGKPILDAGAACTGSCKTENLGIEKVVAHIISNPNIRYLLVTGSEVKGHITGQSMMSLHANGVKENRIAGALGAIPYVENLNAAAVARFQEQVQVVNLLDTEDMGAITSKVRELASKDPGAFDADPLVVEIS

Q: For “MtrR-His6 (small protein MtrR encoded by small ORF16, C-terminal his-tag), heterologously expressed in E. coli (natural protein)”, which Kd [1] is on record?
A: Its Kd is 0.11 µM.

Q: With “MtrR-His6 constitutively expressed in M. mazei (pRS2087) (natural protein)” as the substance, how does the stoichiometry N [2] read?
A: The stoichiometry N was 2.

Q: With “MtrR, endogenous in M. mazei (natural protein)” as the substance, how does the stoichiometry N [3] read?
A: The stoichiometry N was 2.
